Experimental data: the supplement of paper PMC10567573
± gives the standard deviation.

Experiment: protein stability index of a GFP-peptide fusion (GPS, HEK-293T) (PSI 1-6); higher = more stable
[1] = treatment: DMSO, c terminus: a fixed tail appended
[2] = treatment: MLN4924 1 uM, 8 h, c terminus: a fixed tail appended
[3] = treatment: DMSO, c terminus: native
[4] = treatment: MLN4924 1 uM, 8 h, c terminus: native
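Also: 24-mer peptide tiles fused after GFP, lentivirally expressed, FACS-sorted into six equal bins by GFP/DsRed ratio, decoded by Illumina sequencing, PSI is the read-weighted mean bin number.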

Sequence | protein stability index [1] | protein stability index [2] | protein stability index [3] | protein stability index [4]
EQLERIERKNAEMYKLSSEQFHEA [CHCHD6] | 4.52 ± 0.46 | 4.78 ± 0.12 |  | 
EQVAQLKQKVMTHVSNGCQLLLGV [JUNB] | 2.33 ± 0.27 | 2.12 ± 0.13 |  | 
ERALDATEVPFSITTDNLQCRERR [TEKT4] | 4.88 ± 0.069 | 5.06 ± 0.11 |  | 
ERAVKRMRHLSTGTMTGLAIQYAL [MATN2] | 2.39 ± 0.44 | 2.22 ± 0.32 |  | 
ERLKVMCEEALCSNLSVENVADTL [SPOPL] | 3.84 ± 0.36 | 4.09 ± 0.39 |  | 
ERYQKIGDTKRATPIEVLCENFPE [CSNK1G3] | 4.59 ± 0.11 | 4.44 ± 0.28 |  | 
ESFTMDDMSWTCGNQDYKYRVSDV [VDR] | 3.08 ± 0.27 | 2.94 ± 0.13 |  | 
EVKPVLEVLVGKTIEQSLLEVMEE [RSPH3] | 2.48 ± 0.39 | 2.64 ± 0.48 |  | 
EVPDSYTGPRLSFPLLPDHATALV [PPEF2] | 3.23 ± 0.27 | 3.42 ± 0.28 |  | 
EVRAKFKFSLLNAKREETKAMESQ [SPOPL] | 4.06 ± 0.29 | 3.97 ± 0.33 |  | 
EVREARDHKEPKEEINKNISDFGR [EHMT1] | 5.18 ± 0.26 | 5.28 ± 0.17 |  | 
EVVTPDNMCMGRTSRGKLGGQDSF [ETS1] | 3.71 ± 0.16 | 3.87 ± 0.2 |  | 
EYDDDDSAASTSFQPQPVQPQQGY [ZNF207] | 5.32 ± 0.21 | 5.37 ± 0.26 |  | 
FAVGYIKISWSTWGEMTLSLFSLL [SLC19A2] | 3.18 ± 0.6 | 3.15 ± 0.34 |  | 
FERIMKYERLARILLQEIPIRSIS [FBXO39] | 2.73 ± 0.39 | 2.35 ± 0.4 |  | 
FFHLSALKGYLYAVGGRNAAGELP [KLHL13] | 2.56 ± 0.62 | 2.27 ± 0.26 |  | 
FFIQTVRPKDTVMCYRVRWEEAAP [MYORG] | 2.62 ± 0.73 | 2.56 ± 0.92 |  | 
FFPQHPNFCEPQDYRPMNHEAFKD [CDC25B] | 3.81 ± 0.33 | 4.09 ± 0.21 |  | 
FGDVSERLALRQRLKCRSFKWYLE [GALNT9] | 2.29 ± 0.59 | 2.54 ± 0.37 |  | 
FGNRIKRVKLISNKGTETDNDPSC [PHTF1] | 4.06 ± 0.29 | 4.05 ± 0.42 |  | 
FGRGSRTVDLELELQIELLRETKR [ARFIP2] | 2.26 ± 0.15 | 2.32 ± 0.26 |  | 
FHGKYSTINPLWHIRHLGWNPDAR [GLT8D2] | 2.57 ± 0.39 | 2.31 ± 0.21 |  | 
FHPIKETVVEEPVDITPYLDQLDE [INTS3] | 3.98 ± 0.67 | 4.5 ± 0.44 |  | 

Sequence | protein stability index [1] | protein stability index [2] | protein stability index [3] | protein stability index [4]
FIIHGFIDKGDESWVTDMCKVGAS [PNLIPRP1] | 1.98 ± 0.25 | 2.65 ± 0.48 |  | 
FIVIDAMLERIKHEKTVDIYGHVT [PTPRD] | 3.04 ± 1.2 | 2.5 ± 1.1 |  | 
FIYDMCGSNYANFELDLGKKVLNL [PTPN9] | 3.01 ± 1.1 | 2.22 ± 1.5 |  | 
FKKFIRRDFLLDEANGLLPDDKLT [SPOPL] | 2.27 ± 0.097 | 2.41 ± 0.24 |  | 
FKNSLLQKELKKAQMAKAAAEERA [WEE1] | 4.37 ± 0.15 | 4.34 ± 0.087 |  | 
FLANLHITALLNVSRRTSEACMTH [DUSP5] | 3.13 ± 0.42 | 3.48 ± 0.7 |  | 
FLDLFRYRVLLGHTLILMFIWFVC [SLC22A15] | 2.73 ± 0.42 | 2.85 ± 0.71 |  | 
FLGISIVGQSNERGDGGIYIGSIM [DVL3] | 2.87 ± 0.99 | 2.61 ± 0.68 |  | 
FLNDRLANYLEKVRQLERENAELE [KRT36] | 3.21 ± 0.25 | 3.54 ± 0.49 |  | 
FLQALSLAVDKQFEERKKLAAYI [TRIP13] |  |  | 3.18 ± 0.71 | 2.54 ± 0.51
FLRCVTAALIYFAISITAIAKYSD [CMTM3] | 3.41 ± 0.29 | 3.43 ± 0.32 |  | 
FLVGLLFVQRSGNYFVTMFDDYSA [SLC6A17] | 3.05 ± 0.76 | 3.27 ± 0.38 |  | 
FPWIDAIMTQLRQEGWIHHLARHA [CRY1] | 2.5 ± 0.46 | 2.96 ± 0.8 |  | 
FQEPDSPLPPARSPTEPGPERRRS [WEE1] | 5.32 ± 0.35 | 5.31 ± 0.06 |  | 
FQLNQDKMNFSTLRNIQGLFAPLK [POMP] | 2.54 ± 0.61 | 2.3 ± 0.4 |  | 
FQSRLPYQYLHYALFKANRLEKAV [P3H4] | 2.37 ± 0.53 | 2.31 ± 0.56 |  | 
FQVVKDAVLDCLLDFLPKDVKKEK [TENT5D] | 5.16 ± 0.18 | 4.95 ± 0.23 |  | 
FRALAPMYYRGSAAAIIVYDITKE [RAB22A] | 2.27 ± 0.36 | 2.16 ± 0.54 |  | 
FRDEKDYPASTSQDSFEAAGNSTS [KCNA3] | 5.55 ± 0.25 | 5.47 ± 0.077 |  | 
FSVRPGTEATISIREDEVHRLGSP [SCNN1D] | 4.16 ± 0.16 | 4.2 ± 0.12 |  | 
FTETNNHWPQGPTGPPGPPGPMGP [EMID1] | 2.58 ± 0.28 | 3.4 ± 0.5 |  | 
FTGRDSITCLTCQGTGYIPTEQVN [TMEM106C] | 2.66 ± 0.57 | 3.31 ± 0.65 |  | 
FVSAGAAAGVAAAFGAPIGGTLFS [CLCN6] | 2.8 ± 0.48 | 2.46 ± 0.21 |  | 

Sequence | protein stability index [1] | protein stability index [2] | protein stability index [3] | protein stability index [4]
FVVLAFLTGVLCSYPNPNEDKCPG [TMEM192] | 2.92 ± 0.52 | 3.22 ± 0.46 |  | 
FVVTMLKLIQKKLLDKTCDQVMEF [ZER1] | 3.14 ± 0.39 | 3.15 ± 0.32 |  | 
FWPHLKASNWSTTGFGQGQGYTIN [HDAC6] | 2.38 ± 0.32 | 2.64 ± 0.17 |  | 
FYNTEDIKDWEDRFYLLLFSFLGL [PTGFR] | 2.41 ± 0.7 | 2.1 ± 0.47 |  | 
GADCGIQWWNAVFIMLLIGIVLPV [LYSMD4] | 2.88 ± 0.1 | 3.03 ± 0.45 |  | 
GAPEDDEEDDGRGRGLLRWDSFSA [DENND6A] | 4.92 ± 0.078 | 4.98 ± 0.19 |  | 
GAPLLPPPLPPPSPPGSGRGPGAS [ACBD3] | 5.23 ± 0.21 | 5.108 ± 0.027 |  | 
GASSREEPPEEPEQCPVIDSQAPA [SPDEF] | 5.69 ± 0.17 | 5.52 ± 0.078 |  | 
GCSSSGSCSQGSGILHYAHGDSQQ [CRY1] | 3.75 ± 0.41 | 3.67 ± 0.075 |  | 
GEEGAPGKWQQQGDLQDTKENREE [CHGB] | 5.57 ± 0.31 | 5.52 ± 0.28 |  | 
GEWGGRHPSWPWTRCLRMRPPRS |  |  | 2.81 ± 0.6 | 2.88 ± 0.36
GFHKAGSMLPPVNFSIVPYEKKFD [SPATS1] | 3.64 ± 0.087 | 3.54 ± 0.054 |  | 
GFKRDYYLIRVDGKGSIKELFPTG [VPS39] | 2.06 ± 0.29 | 2.25 ± 0.36 |  | 
GGDLMPAPADPTAREGLAAPPRRL [FCHO1] | 5.19 ± 0.33 | 5.15 ± 0.23 |  | 
GGEYQEPGGNVKGVWAPPAPGFGE [BEX5] | 4.05 ± 0.53 | 4.38 ± 0.31 |  | 
GGGNDRVRNLQSEVEGVKNIMTQN [VAMP8] | 4.61 ± 0.34 | 4.75 ± 0.35 |  | 
GGTSWTAYSLNKIHAYNLGTNAWE [KLHDC10] | 2.12 ± 0.34 | 2.08 ± 0.3 |  | 
GGTTGYIYSTDLHKLDLNTREWTQ [KLHDC10] | 2.44 ± 0.3 | 2.47 ± 0.43 |  | 
GGWNFSTQKFTDMVATANNRQTFV [CHIT1] | 2.55 ± 0.29 | 2.81 ± 0.31 |  | 
GGYLQRTTYDRRSSQERKFMEERE [RSPH3] | 4.82 ± 0.21 | 4.76 ± 0.17 |  | 
GHRLAQKLQGLENWGQDPGVSANA [PBXIP1] | 3.82 ± 0.2 | 3.87 ± 0.3 |  | 
GIGKNVICDRTATPLDAFRMTSAA [GFOD1] | 3.43 ± 0.25 | 3.45 ± 0.17 |  | 
GKNWSKLCKDCQVIDGRNVTVTDV [TPPP] | 3.67 ± 0.14 | 3.92 ± 0.23 |  | 

Sequence | protein stability index [1] | protein stability index [2] | protein stability index [3] | protein stability index [4]
GKSRLSPAGEMKPMPLSEGKSILL [BCL2L13] | 3.44 ± 0.32 | 3.44 ± 0.32 |  | 
GKTWKQICDKHWTAKNSRVVCGMF [LOXL2] | 2.06 ± 0.46 | 2.18 ± 0.46 |  | 
GLFRKSGVKSRIQALRQMNEGAID [DLC1] | 3.36 ± 0.1 | 3.71 ± 0.12 |  | 
GLPGSGKTTLARQLQHDFPRALIF [N4BP2L1] | 2.25 ± 0.18 | 2.56 ± 0.23 |  | 
GLQAPPPDDVDYATNPHVKPPYSY [FOXJ1] | 4.42 ± 0.29 | 4.46 ± 0.19 |  | 
GLRAGFSSTSYRRTFGPPPSLSPG [PRPH] | 2.62 ± 0.24 | 2.93 ± 0.15 |  | 
GLSVSSRFSSGGACGLGGGYGGGF [KRT16] | 2.2 ± 0.39 | 2.52 ± 0.38 |  | 
GPIGGMMPPQPGIPQQQGMRPPMP [ZNF207] | 4.35 ± 0.3 | 4.36 ± 0.27 |  | 
GPSLPSKRESPGVGGGSGDEASAA [ZBTB22] | 5.5 ± 0.34 | 5.64 ± 0.48 |  | 
GQCLDSTDQLEFTVEPRLLVADLL [RTN2] | 2.91 ± 0.2 | 3 ± 0.26 |  | 
GQDKQFAWHCSESGQRLGGYRTSA [WDFY2] | 3.51 ± 0.24 | 3.24 ± 0.28 |  | 
GQLTGGYKPNPQIYVKLIEECTDL [OAS1] | 2.99 ± 0.21 | 3.06 ± 0.093 |  | 
GRGAFGEVRLVQKKDTGHIYAMKI [STK38L] | 2.09 ± 0.25 | 2.43 ± 0.49 |  | 
GRGLYVYSLQMKRVIACQKTAHDS [WDR41] | 2.08 ± 0.42 | 2.15 ± 0.34 |  | 
GRSGWPAGGAPGSPIPSPPGPGDD [HES6] | 5.2 ± 0.21 | 5.25 ± 0.093 |  | 
GSFTVRADHGEPIGRGTKVILHLK [HSP90AB1] | 2.1 ± 0.3 | 2.71 ± 0.3 |  | 
GSGSSYVQNGTGNAYEEEANKQS [CNOT7] |  |  | 5.37 ± 0.19 | 5.2 ± 0.23
GSRYDARRGVSDWDLRMKLHDRGA [DNAAF3] | 3.61 ± 0.23 | 3.66 ± 0.42 |  | 
GTQHMFEDDPSVLYVSLHRYDHGT [HDAC6] | 2.34 ± 0.37 | 2.5 ± 0.45 |  | 
GVRVNNRFELINIDDLEDDPVVNG [TCF25] | 4.41 ± 0.16 | 4.51 ± 0.18 |  | 
